Reference: patent US20190106460A1, “BINDING INHIBITORS OF THE BETA. TRANSDUCIN REPEAT-CONTAINING PROTEIN” (priority 2011, published 2019)
One block for each substance: values may come before it. Starred links: 1 amine or outer side, 2 acyl side, 3 side chain; linkers in the order of their positions; H or OH if unused. Suc = O=C(CCC(=O)[*:2])[*:1]

Legend:
[1] = biological target: βTrCP (tag cleaved and complexed with Skp1) (UniProt Q9Y297); assay: FP competition vs fluorescein-IκB peptide
[2] = biological target: HisβTrCP/Skp1 and HisβTrCP/GSTSkp1 (immobilised on NTA Biacore chip) (UniProt Q9Y297); assay: SPR, Biacore T200, βTrCP/Skp1 immobilised
[3] = biological target: βTrCP (tag cleaved and complexed with Skp1) (UniProt Q9Y297); assay: FP competition vs fluorescein-IκB peptide; remark: listed apart in the source
[4] = biological target: βTrCP (tag cleaved and complexed with Skp1) (UniProt Q9Y297); assay: FP competition, 10 nM fluorescein-IκB peptide on βTrCP/Skp1
[5] = biological target: βTrCP (tag cleaved and complexed with Skp1) (UniProt Q9Y297); assay: FP competition vs fluorescein-IκB peptide; Table 7: peptide selected from the arrays of Tables 5 and 6, re-synthesised; FP assay

Chain of βTrCP (tag cleaved and complexed with Skp1) (Q9Y297 175-605, chain 1 of 2): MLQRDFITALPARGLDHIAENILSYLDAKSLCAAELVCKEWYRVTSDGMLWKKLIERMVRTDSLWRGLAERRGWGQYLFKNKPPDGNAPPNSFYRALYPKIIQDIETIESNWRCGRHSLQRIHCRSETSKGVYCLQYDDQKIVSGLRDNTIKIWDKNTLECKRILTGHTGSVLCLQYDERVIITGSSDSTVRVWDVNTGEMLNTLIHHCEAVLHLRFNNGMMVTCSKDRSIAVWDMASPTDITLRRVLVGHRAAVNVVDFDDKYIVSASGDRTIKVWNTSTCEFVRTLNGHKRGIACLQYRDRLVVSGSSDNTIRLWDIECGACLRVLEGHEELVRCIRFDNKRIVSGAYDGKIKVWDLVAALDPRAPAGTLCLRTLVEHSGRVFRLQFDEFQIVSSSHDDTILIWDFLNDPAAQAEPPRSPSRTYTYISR
Chain of βTrCP (tag cleaved and complexed with Skp1) (P63208 whole entry, chain 2 of 2, further chain): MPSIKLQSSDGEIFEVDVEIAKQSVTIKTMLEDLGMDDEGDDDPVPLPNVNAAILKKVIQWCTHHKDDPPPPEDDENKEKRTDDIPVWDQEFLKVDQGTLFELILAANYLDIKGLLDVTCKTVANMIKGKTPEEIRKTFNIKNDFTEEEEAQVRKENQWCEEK
Chain of HisβTrCP/Skp1 and HisβTrCP/GSTSkp1 (immobilised on NTA Biacore chip) (Q9Y297 175-605, chain 1 of 2): as the sequence (Q9Y297 175-605, chain 1 of 2) above
Chain of HisβTrCP/Skp1 and HisβTrCP/GSTSkp1 (immobilised on NTA Biacore chip) (P63208 whole entry, chain 2 of 2, further chain): as the sequence (P63208 whole entry, chain 2 of 2, further chain) above

IC50 [1]: 27.5 µM
Substance: Suc-EA-F(3F)-F(4NO2)-E-NH2 (peptide)

IC50 [1]: 2.07 µM | Kd [2]: 17.7 µM
Substance: Suc-EGYF(4NO2)E-NH2 (peptide)

IC50 [1]: 0.157 µM | Kd [2]: 0.32 µM
Substance: Suc-EGF(3F)1NalE-NH2 (peptide)

IC50 [1]: 2.56 µM | Kd [2]: 5.49 µM
Substance: Suc-QGF(3F)F(4NO2)E-NH2 (peptide)

IC50 [1]: 15.1 µM
Substance: Suc-EGI-1Nal-E-NH2 (peptide)

IC50 [1]: 0.521 µM | Kd [2]: 0.4 µM
Substance: Suc-EGF(3F)HE-NH2 (peptide)

IC50 [1]: 8.01 µM
Substance: Suc-AG-F(3F)-F(4NO2)-E-NH2 (peptide)

IC50 [4]: 1.24 µM
Substance: D-pS-GIFE-NH2 (peptide)

IC50 [5]: 28 µM
Substance: EAFFE-NH2 (peptide)

IC50 [3]: 0.52 µM | IC50 [1]: 0.522 µM | Kd [2]: 4.53 µM
Substance: Suc-EGF(3F)F(4NO2)E-NH2 (peptide)

IC50 [3]: 70 µM
Substance: Suc-EG-F(3F)-3Pal-NH2 (peptide)

IC50 [1]: 1.31 µM | Kd [2]: 1.97 µM
Substance: Suc-EGF(4NO2)1NalE-NH2 (peptide)

IC50 [1]: 0.095 µM | Kd [2]: 0.455 µM
Substance: Suc-EGF(3F)WE-NH2 (peptide)

IC50 [1]: 1.15 µM | Kd [2]: 1.49 µM
Substance: Suc-EGY1NalE-NH2 (peptide)

IC50 [1]: 3.63 µM
Substance: Suc-EG-3Pal-1Nal-E-NH2 (peptide)

IC50 [1]: 1.6 µM
Substance: (MeO)Suc-EG-F(3F)-1Nal-E-NH2 (peptide)

IC50 [1]: 1.24 µM | Kd [2]: 1.48 µM
Substance: DpSGIFE-NH2 (peptide)

Second part, the substance before the results:

Substance: Fum-EG-F(3F)-F(4NO2)-E-NH2 (peptide)
IC50 [1]: 60.4 µM

Substance: Suc-QGFFE-NH2
IC50 [1]: 10 µM

Substance: Suc-EAYFE-NH2 (peptide)
IC50 [1]: 82.1 µM

Substance: Mal-EGF(3F)F(4NO2)E-NH2 (peptide)
IC50 [1]: 2.17 µM | Kd [2]: 1.46 µM

Substance: Suc-EGF(4F)F(4NO2)E-NH2 (peptide)
IC50 [3]: 1.2 µM | IC50 [1]: 1.21 µM | Kd [2]: 0.507 µM

Substance: E-pS-GIFE-NH2 (peptide)
IC50 [4]: 34.5 µM

Substance: Suc-EGF(2F)F(4NO2)E-NH2 (peptide)
IC50 [3]: 4.9 µM | IC50 [1]: 4.91 µM | Kd [2]: 8 µM

Substance: Suc-EG-F(4NO2)-1Nal-NH2 (peptide)
IC50 [3]: 14 µM

Substance: Suc-EG-F(3F)-1Nal-Q-NH2 (peptide)
IC50 [1]: 7.22 µM

Substance: Suc-AGYFE-NH2
IC50 [1]: 22.2 µM

Substance: Suc-QGYFE-NH2
IC50 [1]: 10.7 µM

Substance: Suc-EAFFE-NH2 (peptide)
IC50 [1]: 59.8 µM

Substance: Suc-EG-F(3F)-Y(Me)-E-NH2 (peptide)
IC50 [1]: 1.4 µM

Substance: Suc-EGF(2F)Y(Me)E-NH2 (peptide)
IC50 [3]: 3.2 µM | IC50 [1]: 3.28 µM | Kd [2]: 4.4 µM
